This is an account of results in PMC8178753.

Series [1] has as its system PkKKT2a central domain (551-679) (Perkinsela sp. CCAP 1560/4). Description: fluorescence anisotropy. The settings on record: fluorescein (6-FAMK) in place of T37 of forward strand; 25 mM Hepes pH 7.5, 50 mM NaCl, 1 mM TCEP; FA: 1 nM FAM-dsDNA, 20 min RT, read at 25°C; EMSA: 200 nM dsDNA, 0.78-30 µM protein, 30 min RT, native PAGE at 4°C. For orientation: In fluorescence polarisation assays a small probe gives low polarisation when free and higher when bound to something large.

For series [2], the system named is designed zinc finger (Jantz and Berg, 2010) (synthetic construct). Description: fluorescence anisotropy. To be noted: fluorescein (6-FAMK) in place of T9 of reverse strand; 25 mM Hepes pH 7.5, 50 mM NaCl, 1 mM TCEP; FA: 1 nM FAM-dsDNA, 20 min RT, read at 25°C; EMSA: 200 nM dsDNA, 0.78-30 µM protein, 30 min RT, native PAGE at 4°C.

As to “AGGTAACTAGAAGAATTGTAATATTCTAAATGTTGATCCATTTGAATCAT (double strand) [50 mer 26% GC FAM (BA2216)]”, the Kd (as a rule, the constant that tells how readily two partners part at equilibrium) in series [1] stood at 500 nM.

For the sequence “CGCAGATCCGCGGGGCCCGTGCCGACGCGCGGGCATTGTCCGTGAGGTGA (double strand) [50 mer 74% GC FAM (BA2218)]”, the Kd in series [1] is 500 nM. This counts as sub-micromolar.

Turning to “CAATATGTAAGGTGTTTTGGTGTAAAACACGCATTCTTGCATAACATGCA (double strand) [50 mer CEN FAM (BA1674)]”, in series [1], the Kd came to 500 nM.

In series [2], “CGATCGTTGAGGCAGAACCTGATCA (double strand) [designed DNA FAM (BA3083)]” returned a Kd of 8 nM. This lies in the single-digit nanomolar range.
